This is an account of results in publication PMC9823007.

The assay deals with NyxA (for SEC-MALS and SAXS) (Brucella abortus 2308) (UniProt Q2YPD9). Put plainly: SEC-MALS. A general note: In gel filtration, larger molecules generally elute earlier.

As a reminder, the stoichiometry N is a count of units in the complex or per binding partner. “NyxA (for SEC-MALS and SAXS) (from UniProt Q2YPD9 1-129) (natural protein)” gave a stoichiometry N of 2.
